# Measured values: paper PMC2756588
# T1: Hof1, Q05080
# T1 sequence (Q05080 590-669, looked up): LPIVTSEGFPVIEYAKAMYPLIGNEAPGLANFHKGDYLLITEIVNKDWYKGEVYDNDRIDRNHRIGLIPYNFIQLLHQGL
# T2: Nbp2, Q12163
# T2 sequence (Q12163 103-180, looked up): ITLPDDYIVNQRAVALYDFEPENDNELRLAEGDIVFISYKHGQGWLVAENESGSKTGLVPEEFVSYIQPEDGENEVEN
# T3: Abp1, P15891
# T3 sequence (P15891 535-592, looked up): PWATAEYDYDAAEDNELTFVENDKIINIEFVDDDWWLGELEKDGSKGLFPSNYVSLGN
# T4: Lsb1, P53281
# T4 sequence (P53281 45-122, looked up): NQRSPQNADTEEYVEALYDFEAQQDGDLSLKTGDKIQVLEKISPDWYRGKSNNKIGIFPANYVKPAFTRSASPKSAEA
# T5: Lsb3, P43603
# T5 sequence (P43603 385-451, looked up): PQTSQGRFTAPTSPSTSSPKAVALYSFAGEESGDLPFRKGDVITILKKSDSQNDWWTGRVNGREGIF
# T6: Lsb4, P32793
# T6 sequence (P32793 402-468, looked up): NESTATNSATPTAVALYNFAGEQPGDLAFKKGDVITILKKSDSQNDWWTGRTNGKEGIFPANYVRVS
# T7: Myo5, Q04439
# T7 sequence (Q04439 1072-1160, looked up): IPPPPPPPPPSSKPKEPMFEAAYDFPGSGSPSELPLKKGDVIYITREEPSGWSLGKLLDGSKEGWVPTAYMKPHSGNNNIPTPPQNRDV
# T8: Bud14, P27637
# T8 sequence (P27637 247-328, looked up): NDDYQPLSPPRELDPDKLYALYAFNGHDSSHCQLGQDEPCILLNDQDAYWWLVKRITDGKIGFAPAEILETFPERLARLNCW
# T9: Boi1, P38041
# T9 sequence (P38041 1-86, looked up): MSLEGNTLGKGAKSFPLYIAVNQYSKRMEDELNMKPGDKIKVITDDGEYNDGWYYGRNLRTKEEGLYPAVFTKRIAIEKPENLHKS
# T10: Sla1-3, P32790
# T10 sequence (P32790 344-424, looked up): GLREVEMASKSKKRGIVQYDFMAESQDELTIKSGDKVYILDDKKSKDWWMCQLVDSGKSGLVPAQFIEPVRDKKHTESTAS
# T11: Bzz1-1, P38822
# T11 sequence (P38822 478-572, looked up): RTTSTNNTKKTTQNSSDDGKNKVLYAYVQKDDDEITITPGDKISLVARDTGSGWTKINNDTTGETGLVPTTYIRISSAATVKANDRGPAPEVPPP
# T12: Pex13, P80667
# T12 sequence (P80667 295-386, looked up): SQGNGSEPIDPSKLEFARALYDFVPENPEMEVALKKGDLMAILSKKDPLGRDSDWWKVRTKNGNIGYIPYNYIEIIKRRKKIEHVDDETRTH
# T13: Boi2, P39969
# T13 sequence (P39969 32-116, looked up): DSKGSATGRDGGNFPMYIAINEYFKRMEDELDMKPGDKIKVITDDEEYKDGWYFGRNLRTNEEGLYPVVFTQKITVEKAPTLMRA
# T14: Hse1, P38753
# T14 sequence (P38753 208-285, looked up): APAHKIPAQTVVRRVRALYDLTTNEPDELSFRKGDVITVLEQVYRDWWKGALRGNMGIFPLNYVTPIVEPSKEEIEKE
# T15: Pin3, Q06449
# T15 sequence (Q06449 53-122, looked up): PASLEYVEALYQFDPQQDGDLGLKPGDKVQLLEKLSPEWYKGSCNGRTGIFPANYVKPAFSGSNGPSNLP
# T16: Fus1, P11710
# T16 sequence (P11710 432-512, looked up): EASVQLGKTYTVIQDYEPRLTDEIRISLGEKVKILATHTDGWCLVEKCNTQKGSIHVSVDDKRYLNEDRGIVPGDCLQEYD
# T17: Sla1-2, P32790
# T17 sequence (P32790 60-140, looked up): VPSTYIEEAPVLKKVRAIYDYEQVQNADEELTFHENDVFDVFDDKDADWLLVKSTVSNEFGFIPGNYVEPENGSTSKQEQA
# T18: Bzz1-2, P38822
# T18 sequence (P38822 568-633, looked up): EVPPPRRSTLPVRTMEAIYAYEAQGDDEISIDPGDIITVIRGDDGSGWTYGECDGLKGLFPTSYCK
# T19: Bbc1, P47068
# T19 sequence (P47068 1-78, looked up): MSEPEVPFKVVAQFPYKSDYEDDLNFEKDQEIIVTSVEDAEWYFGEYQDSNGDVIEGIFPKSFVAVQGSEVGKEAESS
# T20: Cyk3, Q07533
# T20 sequence (Q07533 1-83, looked up): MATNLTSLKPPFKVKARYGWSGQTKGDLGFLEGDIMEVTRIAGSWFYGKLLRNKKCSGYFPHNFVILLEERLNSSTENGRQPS
# T21: Cdc25, P04821
# T21 sequence (P04821 50-136, looked up): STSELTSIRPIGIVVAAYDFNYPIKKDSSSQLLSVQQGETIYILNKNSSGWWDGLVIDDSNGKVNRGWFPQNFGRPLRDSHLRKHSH
# Biological target: T1, Hof1, Q05080
# Assay: SPOT array
# Conditions: median of control spots 4086
row,SPOT intensity,Binder
1,8,RKNRAPPQRPRFNRD
2,11,IHTRRPSSTSQYLIR
3,0,LKVTPGRRAPTISKI

# Biological target: T2, Nbp2, Q12163
# Assay: SPOT array
# Conditions: median of control spots 357
row,SPOT intensity,Binder
1,490,RKNRAPPQRPRFNRD
2,0,IHTRRPSSTSQYLIR
3,85,LKVTPGRRAPTISKI

# Biological target: T3, Abp1, P15891
# Assay: SPOT array
# Conditions: median of control spots 935
row,SPOT intensity,Binder
1,298,RKNRAPPQRPRFNRD
2,27,IHTRRPSSTSQYLIR
3,83,LKVTPGRRAPTISKI

# Biological target: T4, Lsb1, P53281
# Assay: SPOT array
# Conditions: median of control spots 388
row,SPOT intensity,Binder
1,670,RKNRAPPQRPRFNRD
2,0,IHTRRPSSTSQYLIR
3,0,LKVTPGRRAPTISKI

# Biological target: T5, Lsb3, P43603
# Assay: SPOT array
# Conditions: median of control spots 406
row,SPOT intensity,Binder
1,68,RKNRAPPQRPRFNRD
2,0,IHTRRPSSTSQYLIR
3,0,LKVTPGRRAPTISKI

# Biological target: T6, Lsb4, P32793
# Assay: SPOT array
# Conditions: median of control spots 397
row,SPOT intensity,Binder
1,75,RKNRAPPQRPRFNRD
2,2,IHTRRPSSTSQYLIR
3,7,LKVTPGRRAPTISKI

# Biological target: GST
# Assay: SPOT array
# Conditions: median of control spots 978
row,SPOT intensity,Binder
1,4,RKNRAPPQRPRFNRD
2,0,IHTRRPSSTSQYLIR
3,0,LKVTPGRRAPTISKI

# Biological target: T7, Myo5, Q04439
# Assay: SPOT array
# Conditions: median of control spots 471
row,SPOT intensity,Binder
1,3,RKNRAPPQRPRFNRD
2,1,IHTRRPSSTSQYLIR
3,6,LKVTPGRRAPTISKI

# Biological target: T8, Bud14, P27637
# Assay: SPOT array
# Conditions: median of control spots 956
row,SPOT intensity,Binder
1,18,RKNRAPPQRPRFNRD
2,4,IHTRRPSSTSQYLIR
3,8,LKVTPGRRAPTISKI

# Biological target: T9, Boi1, P38041
# Assay: SPOT array
# Conditions: median of control spots 1162
row,SPOT intensity,Binder
1,12,RKNRAPPQRPRFNRD
2,2,IHTRRPSSTSQYLIR
3,0,LKVTPGRRAPTISKI

# Biological target: T10, Sla1-3, P32790
# Assay: SPOT array
# Conditions: median of control spots 5475
row,SPOT intensity,Binder
1,353,RKNRAPPQRPRFNRD
2,21,IHTRRPSSTSQYLIR
3,6,LKVTPGRRAPTISKI

# Biological target: T11, Bzz1-1, P38822
# Assay: SPOT array
# Conditions: median of control spots 4446
row,SPOT intensity,Binder
1,11,RKNRAPPQRPRFNRD
2,0,IHTRRPSSTSQYLIR
3,0,LKVTPGRRAPTISKI

# Biological target: T12, Pex13, P80667
# Assay: SPOT array
# Conditions: median of control spots 1341
row,SPOT intensity,Binder
1,10,RKNRAPPQRPRFNRD
2,11,IHTRRPSSTSQYLIR
3,3,LKVTPGRRAPTISKI

# Biological target: T13, Boi2, P39969
# Assay: SPOT array
# Conditions: median of control spots 1161
row,SPOT intensity,Binder
1,7,RKNRAPPQRPRFNRD
2,0,IHTRRPSSTSQYLIR
3,2,LKVTPGRRAPTISKI

# Biological target: T14, Hse1, P38753
# Assay: SPOT array
# Conditions: median of control spots 1727
row,SPOT intensity,Binder
1,23,RKNRAPPQRPRFNRD
2,22,IHTRRPSSTSQYLIR
3,0,LKVTPGRRAPTISKI

# Biological target: T15, Pin3, Q06449
# Assay: SPOT array
# Conditions: median of control spots 2171
row,SPOT intensity,Binder
1,9,RKNRAPPQRPRFNRD
2,25,IHTRRPSSTSQYLIR
3,14,LKVTPGRRAPTISKI

# Biological target: T16, Fus1, P11710
# Assay: SPOT array
# Conditions: median of control spots 1200
row,SPOT intensity,Binder
1,26,RKNRAPPQRPRFNRD
2,233,IHTRRPSSTSQYLIR
3,0,LKVTPGRRAPTISKI

# Biological target: T17, Sla1-2, P32790
# Assay: SPOT array
# Conditions: median of control spots 712
row,SPOT intensity,Binder
1,3,RKNRAPPQRPRFNRD
2,0,IHTRRPSSTSQYLIR
3,0,LKVTPGRRAPTISKI

# Biological target: T18, Bzz1-2, P38822
# Assay: SPOT array
# Conditions: median of control spots 4538
row,SPOT intensity,Binder
1,91,RKNRAPPQRPRFNRD
2,7,IHTRRPSSTSQYLIR
3,1,LKVTPGRRAPTISKI

# Biological target: Bem1-1, P29366
# Sequence (P29366 55-141): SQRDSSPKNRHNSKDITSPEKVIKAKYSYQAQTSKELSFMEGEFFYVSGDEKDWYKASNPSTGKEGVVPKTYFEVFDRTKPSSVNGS
# Assay: SPOT array
# Conditions: median of control spots 4282
row,SPOT intensity,Binder
1,0,RKNRAPPQRPRFNRD
2,9,IHTRRPSSTSQYLIR
3,1,LKVTPGRRAPTISKI

# Biological target: Sho1, P40073
# Sequence (P40073 287-367): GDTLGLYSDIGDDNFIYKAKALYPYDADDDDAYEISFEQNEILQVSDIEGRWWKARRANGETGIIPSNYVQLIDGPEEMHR
# Assay: SPOT array
# Conditions: median of control spots 1148
row,SPOT intensity,Binder
1,262,RKNRAPPQRPRFNRD
2,28,IHTRRPSSTSQYLIR
3,72,LKVTPGRRAPTISKI

# Biological target: Rvs167, P39743
# Sequence (P39743 419-482): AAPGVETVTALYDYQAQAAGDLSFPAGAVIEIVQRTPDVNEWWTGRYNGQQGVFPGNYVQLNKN
# Assay: SPOT array
# Conditions: median of control spots 2707
row,SPOT intensity,Binder
1,2,RKNRAPPQRPRFNRD
2,0,IHTRRPSSTSQYLIR
3,0,LKVTPGRRAPTISKI

# Biological target: T19, Bbc1, P47068
# Assay: SPOT array
# Conditions: median of control spots 796
row,SPOT intensity,Binder
1,535,RKNRAPPQRPRFNRD
2,6,IHTRRPSSTSQYLIR
3,17,LKVTPGRRAPTISKI

# Biological target: T20, Cyk3, Q07533
# Assay: SPOT array
# Conditions: median of control spots 1451
row,SPOT intensity,Binder
1,12,RKNRAPPQRPRFNRD
2,1,IHTRRPSSTSQYLIR
3,1,LKVTPGRRAPTISKI

# Biological target: T21, Cdc25, P04821
# Assay: SPOT array
# Conditions: median of control spots 969
row,SPOT intensity,Binder
1,40,RKNRAPPQRPRFNRD
2,10,IHTRRPSSTSQYLIR
3,13,LKVTPGRRAPTISKI

# Biological target: Bem1-2, P29366
# Sequence (P29366 139-227): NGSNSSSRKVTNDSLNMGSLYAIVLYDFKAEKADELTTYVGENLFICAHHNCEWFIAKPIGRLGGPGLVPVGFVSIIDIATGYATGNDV
# Assay: SPOT array
# Conditions: median of control spots 4347
row,SPOT intensity,Binder
1,104,RKNRAPPQRPRFNRD
2,43,IHTRRPSSTSQYLIR
3,3,LKVTPGRRAPTISKI

# Biological target: Myo3, P36006
# Assay: SPOT array
# Conditions: median of control spots 468
row,SPOT intensity,Binder
1,61,RKNRAPPQRPRFNRD
2,1,IHTRRPSSTSQYLIR
3,80,LKVTPGRRAPTISKI
